Assay results reported in patent US20070036810A1, “Cyclic amp response element activator proteins and uses related thereto” (priority 2003, published 2007).

Molecular target: T1, CREB-GAL4 fusion molecule (UniProt P04386+P16220)
T1 construct: host or cells: HLR cell line (5x GAL4 element-luciferase reporter)
Test: In vivo kinase assay, CREB-GAL4 fusion in HLR cells
Assay type: cell-based
Settings: 40 hours after transfection
Experimental: For in vivo kinase assay, activation domains of CREB or ATF2 transcription factors fused with the yeast GAL4 DNA binding domain (1-147 Amino Acids) constructs are used (Stratagene, PathDetect In Vivo Signal Transduction Pathway trans-reporting Systems). The HLR cell line that contains a 5× GAL4 DNA binding element and TATA box driving luciferase reporter is used per manufacturer's protocol (Stratagene). 10^4 HLR cells are split into each well of 96 well tissue culture plates. After 16 hours, cells are transfected with 100 ng of Creb-GAL4 or ATF2-GAL4 fusion constructs, 30 ng of Renilla luciferase control plasmid together with 100 ng of pCMVSPORT6, pCMVSPORT-CREAP1, pFC-PKA or pFC-MEKK (Stratagene) activator plasmids respectively. Transfection is done with Fugene6 reagent (Roche Molecular Biochemicals, Basel, Switzerland) according to the manufacturers manual. Forty hours after transfection, a Dual-Glo Luciferase assay (Promega) is conducted using the manufacturer's protocol.
As CREAP1 strongly activates CRE promoter transcription, we next investigated whether CREAP1 works through the CREB pathway. […]

T1 sequence (P04386+P16220 fused): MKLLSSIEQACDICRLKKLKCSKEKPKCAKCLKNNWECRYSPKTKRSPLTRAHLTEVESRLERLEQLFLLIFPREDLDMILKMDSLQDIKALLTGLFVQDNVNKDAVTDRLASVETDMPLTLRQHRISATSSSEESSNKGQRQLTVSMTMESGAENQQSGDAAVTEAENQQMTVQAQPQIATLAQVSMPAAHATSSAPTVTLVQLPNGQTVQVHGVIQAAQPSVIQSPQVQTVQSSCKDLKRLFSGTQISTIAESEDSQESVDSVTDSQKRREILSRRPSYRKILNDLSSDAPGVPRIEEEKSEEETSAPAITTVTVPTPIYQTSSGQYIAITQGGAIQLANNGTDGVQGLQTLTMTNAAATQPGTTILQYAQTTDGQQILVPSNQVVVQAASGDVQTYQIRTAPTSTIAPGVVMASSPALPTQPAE

B1: CREAP1: human CRE activating protein 1, 650 amino acids, SEQ ID NO 2; expressed from pCMVSPORT-CREAP1 (protein)
chain: MATSNNPRKFSEKIALHNQKQAEETAAFEEVMKDLSLTRAARLQLQKSQYLQLGPSRGQYYGGSLPNVNQIGSGTMDLPFQPSGFLGEALAAAPVSLTPFQSSGLDTSRTTRHHGLVDRVYRERGRLGSPHRRPLSVDKHGRQADSCPYGTMYLSPPADTSWRRTNSDSALHQSTMTPTQPESFSSGSQDVHQKRVLLLTVPGMEETTSEADKNLSKQAWDTKKTGSRPKSCEVPGINIFPSADQENTTALIPATHNTGGSLPDLTNIHFPSPLPTPLDPEEPTFPALSSSSSTGNLAANLTHLGIGGAGQGMSTPGSSPQHRPAGVSPLSLSTEARRQQASPTLSPLSPITQAVAMDALSLEQQLPYAFFTQAGSQQPPPQPQPPPPPPPASQQPPPPPPPQAPVRLPPGGPLLPSASLTRGPQPPPLAVTVPSSLPQSPPENPGQPSMGIDIASAPALQQYRTSAGSPANQSPTSPVSNQGFSPGSSPQHTSTLGSVFGDAYYEQQMAARQANALSHQLEQFNMMENAISSSSLYSPGSTLNYSQAAMMGLTGSHGSLPDSQQLGYASHSGIPNIILTVTGESPPSLSKELTSSLAGVGDVSFDSDSQFPLDELKIDPLTLDGLHMLNDPDMVLADPATEDTFRMDRL
modifications: human
In the case of B1, the “transactivation of the CREB-GAL4 fusion molecule on the GAL4 promoter” value is reported as “strongly stimulates”.
